Assay results reported in patent US20230312709A1.

Molecular target: human platelets (CD61 APC-positive gate P1)
Test: flow cytometry on diluted human whole blood, platelets gated as CD61 APC-positive (P1), PE goat anti-human IgG Fc secondary [panel hIgG4 iso : P1]

V2R (% of CD61-positive P1 events right of the PE gate): 0.11%
Substance: hIgG4-isotype control (antibody)
